These results are taken from paper PMC12636523.

The test deals with cleaved SVS-Dlp (SVS-Dlp coexpressed with Mmp2-FLAG, cleaved in the N-terminal polypeptide) (Drosophila). As to the kind of experiment: co-IP; S2R+ cells cotransfected with SVS-dlp and a Wnt, with or without Mmp2-FLAG; clarified lysate (2 mM Tris HCl, 150 mM NaCl, 1% NP-40 substitute, 1 mM EDTA, 5% glycerol, pH 7.4) on GFP-Trap Magnetic Agarose beads, 30 min at 4°C; Western blot under reducing conditions.

Turning to Wnt6-3XHA (ligand), the fold increase of Wnt pulled down against uncleaved Dlp (median) came to 2.7 fold.

B1: Wnt4-3XFLAG (ligand)
chain: QVRNEDQLLMVGQNGDLDSSNPAIHHQQHQQHQQHQQHQQHQSNHNLNNGNMNSTILNTLMGNNAGQVVNSSPGGGGSMINQLGSSTSSVPSVIGGGVGSVGNPWHSAVGLGVPGNGMGLPSSHGLGGNMGSHPHGHALAGLAKLGIIVPGGQGLPGNLGYGGTMLNGGGVGGAAGMGLGIGSNTNNMDMQQGLYNEHFISEHTVMAVFTSQGQVGGPCRYMPATRRQNHQCRKETGLPGTLSEARRLATTHCEEQFRYDRWNCSIETRGKRNIFKKLYKETAFVHALTAAAMTHSIARACAEGRMTKCSCGPKKHNREAQDFQWGGCNDNLKHGKRVTRSFLDLRGGDGDEVSEILRHDSEVGIEAVSSQMMDKCKCHGVSGSCSMKTCWKKMADFNATATLLRQKYNEAIRKAPNQRSMRQVSSSRMKKPKQRRKKPQQSQYTTLYYLETSPSYCAVTKDRQCLHPDNCGTLCCGRGYTTQVVKQVEKCRCRFNNGRCCQLICDYCQRLENKYFCK
The molecule B1 gave a fold increase of Wnt pulled down against uncleaved Dlp (median) of 5.9 fold.

B2: Wnt2-3XHA (ligand)
chain: FTSVMLCGRIPGLTPGQRNMCREMPDALIALGEGHQLGAQECQHQFRGHRWNCSEVWQRNVFAHVIPTASREAAYTYAIASAGAAYAVTAACARGNISTCGCDVRHKATPTGGGTPDEPWKWGGCSADVDFGMRYARRFMDARELERDSRTLMNLHNNRAGRTLVKKMLRTDCKCHGVSGSCVMKTCWKSLPPFRLVGDRLMLKYQKAKTVQAVKGKRGLRLVLSRKKHAGTARAQKPVLDWPKRMELIYLEASPNYCERSLQTGSQGTSGRTCQRTGHGPQSCDLLCCGRGHNTQHIRRTTQCRCQFRWCCEVKCDECDESYEEFTCK
Turning to B2, the fold increase of Wnt pulled down against uncleaved Dlp (median) worked out at 6.2 fold.

B3: Wg-HA (Wingless with 3XHA tag) (ligand)
chain: GSSLSQVEGKQKSGRGRGSMWWGIAKVGEPNNITPIMYMDPAIHSTLRRKQRRLVRDNPGVLGALVKGANLAISECQHQFRNRRWNCSTRNFSRGKNLFGKIVDRGCRETSFIYAITSAAVTHSIARACSEGTIESCTCDYSHQSRSPQANHQAGSVAGVRDWEWGGCSDNIGFGFKFSREFVDTGERGRNLREKMNLHNNEAGRAHVQAEMRQECKCHGMSGSCTVKTCWMRLANFRVIGDNLKARFDGATRVQVTNSLRATNALAPVSPNAAGSNSVGSNGLIIPQSGLVYGEEEERMLNDHMPDILLENSHPISKIHHPNMPSPNSLPQAGQRGGRNGRRQGRKHNRYHFQLNPHNPEHKPPGSKDLVYLEPSPSFCEKNLRQGILGTHGRQCNETSLGVDGCGLMCCGRGYRRDEVVVVERCACTFHWCCEVKCKLCRTKKVIYTCL
For B3, the fold increase of Wg pulled down, normalized to the amount of Dlp, against uncleaved Dlp (median) was determined as 2.7 fold.
